Target: the molecule itself
Assay: SEC peak area ratio after coexpression of full-length heavy chain, light chain and Fc fragment

B1: IgG1 full-length heavy chain with K392L/T394W/F405A/Y407V (SEQ ID NO: 41) with light chain SEQ ID NO: 61 (antibody)
heavy: QVQLQESGPGLVRPSQTLSLTCTVSGYSITSDHAWSWVRQPPGRGLEWIGYISYSGITTYNPSLKSRVTMLRDTSKNQFSLRLSSVTAADTAVYYCARSLARTTAMDYWGQGSLVTVSSASTKGPSVFPLAPSSKSTSGGTAALGCLVKDYFPEPVTVSWNSGALTSGVHTFPAVLQSSGLYSLSSVVTVPSSSLGTQTYICNVNHKPSNTKVDKRVEPKSCDKTHTCPPCPAPELLGGPSVFLFPPKPKDTLMISRTPEVTCVVVDVSHEDPEVKFNWYVDGVEVHNAKTKPREEQYNSTYRVVSVLTVLHQDWLNGKEYKCKVSNKALPAPIEKTISKAKGQPREPQVYTLPPSREEMTKNQVSLTCLVKGFYPSDIAVEWESNGQPENNYLTWPPVLDSDGSFALVSKLTVDKSRWQQGNVFSCSVMHEALHNHYTQKSLSLSP
light: not shown
notes: also called Sample No. 200 full-length heavy chain
Homo full-length heavy chain (%): 72.7%

B2: IgG1 full-length heavy chain with T350V/L351Y/T366L/K392L/T394W/F405A/Y407V (SEQ ID NO: 60) with light chain SEQ ID NO: 61 (antibody)
heavy: QVQLQESGPGLVRPSQTLSLTCTVSGYSITSDHAWSWVRQPPGRGLEWIGYISYSGITTYNPSLKSRVTMLRDTSKNQFSLRLSSVTAADTAVYYCARSLARTTAMDYWGQGSLVTVSSASTKGPSVFPLAPSSKSTSGGTAALGCLVKDYFPEPVTVSWNSGALTSGVHTFPAVLQSSGLYSLSSVVTVPSSSLGTQTYICNVNHKPSNTKVDKRVEPKSCDKTHTCPPCPAPELLGGPSVFLFPPKPKDTLMISRTPEVTCVVVDVSHEDPEVKFNWYVDGVEVHNAKTKPREEQYNSTYRVVSVLTVLHQDWLNGKEYKCKVSNKALPAPIEKTISKAKGQPREPQVYVYPPSREEMTKNQVSLLCLVKGFYPSDIAVEWESNGQPENNYLTWPPVLDSDGSFALVSKLTVDKSRWQQGNVFSCSVMHEALHNHYTQKSLSLSP
light: not shown
Homo full-length heavy chain (%): 71.9%

B3: IgG1 full-length heavy chain with Q347R/K360E/D399V/F405T/K409W (SEQ ID NO: 31) with light chain SEQ ID NO: 61 (antibody)
heavy: QVQLQESGPGLVRPSQTLSLTCTVSGYSITSDHAWSWVRQPPGRGLEWIGYISYSGITTYNPSLKSRVTMLRDTSKNQFSLRLSSVTAADTAVYYCARSLARTTAMDYWGQGSLVTVSSASTKGPSVFPLAPSSKSTSGGTAALGCLVKDYFPEPVTVSWNSGALTSGVHTFPAVLQSSGLYSLSSVVTVPSSSLGTQTYICNVNHKPSNTKVDKRVEPKSCDKTHTCPPCPAPELLGGPSVFLFPPKPKDTLMISRTPEVTCVVVDVSHEDPEVKFNWYVDGVEVHNAKTKPREEQYNSTYRVVSVLTVLHQDWLNGKEYKCKVSNKALPAPIEKTISKAKGQPREPRVYTLPPSREEMTENQVSLTCLVKGFYPSDIAVEWESNGQPENNYKTTPPVLVSDGSFTLYSWLTVDKSRWQQGNVFSCSVMHEALHNHYTQKSLSLSP
light: not shown
Homo full-length heavy chain (%): 72.1%

B4: IgG1 full-length heavy chain with Q347E/S354Y/T366Y/Y407T (SEQ ID NO: 39) with light chain SEQ ID NO: 61 (antibody)
heavy: QVQLQESGPGLVRPSQTLSLTCTVSGYSITSDHAWSWVRQPPGRGLEWIGYISYSGITTYNPSLKSRVTMLRDTSKNQFSLRLSSVTAADTAVYYCARSLARTTAMDYWGQGSLVTVSSASTKGPSVFPLAPSSKSTSGGTAALGCLVKDYFPEPVTVSWNSGALTSGVHTFPAVLQSSGLYSLSSVVTVPSSSLGTQTYICNVNHKPSNTKVDKRVEPKSCDKTHTCPPCPAPELLGGPSVFLFPPKPKDTLMISRTPEVTCVVVDVSHEDPEVKFNWYVDGVEVHNAKTKPREEQYNSTYRVVSVLTVLHQDWLNGKEYKCKVSNKALPAPIEKTISKAKGQPREPEVYTLPPYREEMTKNQVSLYCLVKGFYPSDIAVEWESNGQPENNYKTTPPVLDSDGSFFLTSKLTVDKSRWQQGNVFSCSVMHEALHNHYTQKSLSLSP
light: not shown
Homo full-length heavy chain (%): 70.4%

B5: IgG1 full-length heavy chain with T366W/L368A/Y407V (SEQ ID NO: 26) with light chain SEQ ID NO: 61 (antibody)
heavy: QVQLQESGPGLVRPSQTLSLTCTVSGYSITSDHAWSWVRQPPGRGLEWIGYISYSGITTYNPSLKSRVTMLRDTSKNQFSLRLSSVTAADTAVYYCARSLARTTAMDYWGQGSLVTVSSASTKGPSVFPLAPSSKSTSGGTAALGCLVKDYFPEPVTVSWNSGALTSGVHTFPAVLQSSGLYSLSSVVTVPSSSLGTQTYICNVNHKPSNTKVDKRVEPKSCDKTHTCPPCPAPELLGGPSVFLFPPKPKDTLMISRTPEVTCVVVDVSHEDPEVKFNWYVDGVEVHNAKTKPREEQYNSTYRVVSVLTVLHQDWLNGKEYKCKVSNKALPAPIEKTISKAKGQPREPQVYTLPPSREEMTKNQVSLWCAVKGFYPSDIAVEWESNGQPENNYKTTPPVLDSDGSFFLVSKLTVDKSRWQQGNVFSCSVMHEALHNHYTQKSLSLSP
light: not shown
Homo full-length heavy chain (%): 73.8%

B6: IgG2 full-length heavy chain with K392D/D399K/K409D (SEQ ID NO: 91) with light chain SEQ ID NO: 61 (antibody)
heavy: QVQLQESGPGLVRPSQTLSLTCTVSGYSITSDHAWSWVRQPPGRGLEWIGYISYSGITTYNPSLKSRVTMLRDTSKNQFSLRLSSVTAADTAVYYCARSLARTTAMDYWGQGSLVTVSSASTKGPSVFPLAPCSRSTSESTAALGCLVKDYFPEPVTVSWNSGALTSGVHTFPAVLQSSGLYSLSSVVTVPSSNFGTQTYTCNVDHKPSNTKVDKTVERKCCVECPPCPAPPVAGPSVFLFPPKPKDTLMISRTPEVTCVVVDVSHEDPEVQFNWYVDGVEVHNAKTKPREEQFNSTFRVVSVLTVVHQDWLNGKEYKCKVSNKGLPAPIEKTISKTKGQPREPQVYTLPPSREEMTKNQVSLTCLVKGFYPSDIAVEWESNGQPENNYDTTPPMLKSDGSFFLYSDLTVDKSRWQQGNVFSCSVMHEALHNHYTQKSLSLSP
light: not shown
notes: also called Sample No. 212 full-length heavy chain
Homo full-length heavy chain (%): 79.6%

B7: IgG2 full-length heavy chain with K392L/T394W/F405A/Y407V (SEQ ID NO: 90) with light chain SEQ ID NO: 61 (antibody)
heavy: QVQLQESGPGLVRPSQTLSLTCTVSGYSITSDHAWSWVRQPPGRGLEWIGYISYSGITTYNPSLKSRVTMLRDTSKNQFSLRLSSVTAADTAVYYCARSLARTTAMDYWGQGSLVTVSSASTKGPSVFPLAPCSRSTSESTAALGCLVKDYFPEPVTVSWNSGALTSGVHTFPAVLQSSGLYSLSSVVTVPSSNFGTQTYTCNVDHKPSNTKVDKTVERKCCVECPPCPAPPVAGPSVFLFPPKPKDTLMISRTPEVTCVVVDVSHEDPEVQFNWYVDGVEVHNAKTKPREEQFNSTFRVVSVLTVVHQDWLNGKEYKCKVSNKGLPAPIEKTISKTKGQPREPQVYTLPPSREEMTKNQVSLTCLVKGFYPSDIAVEWESNGQPENNYLTWPPMLDSDGSFALVSKLTVDKSRWQQGNVFSCSVMHEALHNHYTQKSLSLSP
light: not shown
Homo full-length heavy chain (%): 78.5%

B8: IgG2 full-length heavy chain with T366W/L368A/Y407V (SEQ ID NO: 88) with light chain SEQ ID NO: 61 (antibody)
heavy: QVQLQESGPGLVRPSQTLSLTCTVSGYSITSDHAWSWVRQPPGRGLEWIGYISYSGITTYNPSLKSRVTMLRDTSKNQFSLRLSSVTAADTAVYYCARSLARTTAMDYWGQGSLVTVSSASTKGPSVFPLAPCSRSTSESTAALGCLVKDYFPEPVTVSWNSGALTSGVHTFPAVLQSSGLYSLSSVVTVPSSNFGTQTYTCNVDHKPSNTKVDKTVERKCCVECPPCPAPPVAGPSVFLFPPKPKDTLMISRTPEVTCVVVDVSHEDPEVQFNWYVDGVEVHNAKTKPREEQFNSTFRVVSVLTVVHQDWLNGKEYKCKVSNKGLPAPIEKTISKTKGQPREPQVYTLPPSREEMTKNQVSLWCAVKGFYPSDIAVEWESNGQPENNYKTTPPMLDSDGSFFLVSKLTVDKSRWQQGNVFSCSVMHEALHNHYTQKSLSLSP
light: not shown
Homo full-length heavy chain (%): 80%

B9: IgG2 full-length heavy chain with Q347R/K360E/D399V/F405T/K409W (SEQ ID NO: 89) with light chain SEQ ID NO: 61 (antibody)
heavy: QVQLQESGPGLVRPSQTLSLTCTVSGYSITSDHAWSWVRQPPGRGLEWIGYISYSGITTYNPSLKSRVTMLRDTSKNQFSLRLSSVTAADTAVYYCARSLARTTAMDYWGQGSLVTVSSASTKGPSVFPLAPCSRSTSESTAALGCLVKDYFPEPVTVSWNSGALTSGVHTFPAVLQSSGLYSLSSVVTVPSSNFGTQTYTCNVDHKPSNTKVDKTVERKCCVECPPCPAPPVAGPSVFLFPPKPKDTLMISRTPEVTCVVVDVSHEDPEVQFNWYVDGVEVHNAKTKPREEQFNSTFRVVSVLTVVHQDWLNGKEYKCKVSNKGLPAPIEKTISKTKGQPREPRVYTLPPSREEMTENQVSLTCLVKGFYPSDIAVEWESNGQPENNYKTTPPMLVSDGSFTLYSWLTVDKSRWQQGNVFSCSVMHEALHNHYTQKSLSLSP
light: not shown
notes: also called Sample No. 210 full-length heavy chain
Homo full-length heavy chain (%): 80.4%
